Measurements taken from US20160109449A1 (JULIUS MAXIMILIANS UNIVERSITAET WUERZBURG, published 2016).

What was measured:
Experiment in all cases: peptide array on glass slide, fluorescent secondary antibody;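 further: binding of a hybridoma-secreted monoclonal antibody to immobilized oligopeptide spots, compared with control antibodies, detected through a fluorescence-labeled secondary antibody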
[1] = target: T1, IsaA oligopeptide SEQ ID NO: 21 (Staphylococcus aureus)
T1 construct: Synthetic 15-mer of IsaA, spotted on a glass slide
T1 peptide: QLNAAPIKDGAYDIH
Method: (§1) Each oligopeptide was immobilized on a small spot on a glass side. Binding of the monoclonal antibodies secreted by the hybridoma cell line DSM ACC2987 and of control antibodies to these spots was examined upon incubation with these antibodies by binding of fluorescence labeled secondary antibodies and detecting fluorescence intensities.

[2] = target: T2, IsaA oligopeptide SEQ ID NO: 34 (Staphylococcus aureus)
T2 construct: Synthetic 15-mer of IsaA, spotted on a glass slide
T2 peptide: DYTTSYNQGSDVQSV
Method: as §1

[3] = target: T3, IsaA oligopeptide SEQ ID NO: 56 (Staphylococcus aureus)
T3 construct: Synthetic 15-mer of IsaA, spotted on a glass slide
T3 peptide: NAYNPSGASGLFQTM
Method: as §1

[4] = target: T4, IsaA oligopeptide SEQ ID NO: 44 (Staphylococcus aureus)
T4 construct: Synthetic 15-mer of IsaA, spotted on a glass slide
T4 peptide: TTSSSVRLSNGNTAG
Method: as §1

[5] = target: T5, IsaA oligopeptide SEQ ID NO: 50 (Staphylococcus aureus)
T5 construct: Synthetic 15-mer of IsaA, spotted on a glass slide
T5 peptide: MAQRTGVSASTWAAI
Method: as §1

[6] = target: T6, IsaA oligopeptide SEQ ID NO: 42 (Staphylococcus aureus)
T6 construct: Synthetic 15-mer of IsaA, spotted on a glass slide
T6 peptide: TYHNYSTSTTSSSVR
Method: as §1

[7] = target: T7, IsaA oligopeptide SEQ ID NO: 58 (Staphylococcus aureus)
T7 construct: Synthetic 15-mer of IsaA, spotted on a glass slide
T7 peptide: SGLFQTMPGWGPTNT
Method: as §1

[8] = target: T8, IsaA oligopeptide SEQ ID NO: 22 (Staphylococcus aureus)
T8 construct: Synthetic 15-mer of IsaA, spotted on a glass slide
T8 peptide: APIKDGAYDIHFVKD
Method: as §1

[9] = target: T9, IsaA oligopeptide SEQ ID NO: 63 (Staphylococcus aureus)
T9 construct: Synthetic 15-mer of IsaA, spotted on a glass slide
T9 peptide: NAAVKAYKAQGLGAW
Method: as §1

[10] = target: T10, IsaA oligopeptide SEQ ID NO: 20 (Staphylococcus aureus)
T10 construct: Synthetic 15-mer of IsaA, spotted on a glass slide
T10 peptide: NHQDQLNAAPIKDGA
Method: as §1

[11] = target: T11, IsaA oligopeptide SEQ ID NO: 55 (Staphylococcus aureus)
T11 construct: Synthetic 15-mer of IsaA, spotted on a glass slide
T11 peptide: NGQVNAYNPSGASGL
Method: as §1

[12] = target: T12, IsaA oligopeptide SEQ ID NO: 43 (Staphylococcus aureus)
T12 construct: Synthetic 15-mer of IsaA, spotted on a glass slide
T12 peptide: YSTSTTSSSVRLSNG
Method: as §1

[13] = target: T13, IsaA oligopeptide SEQ ID NO: 35 (Staphylococcus aureus)
T13 construct: Synthetic 15-mer of IsaA, spotted on a glass slide
T13 peptide: SYNQGSDVQSVSYNA
Method: as §1

[14] = target: T14, IsaA oligopeptide SEQ ID NO: 45 (Staphylococcus aureus)
T14 construct: Synthetic 15-mer of IsaA, spotted on a glass slide
T14 peptide: SVRLSNGNTAGATGS
Method: as §1

[15] = target: T15, IsaA oligopeptide SEQ ID NO: 33 (Staphylococcus aureus)
T15 construct: Synthetic 15-mer of IsaA, spotted on a glass slide
T15 peptide: VAGADYTTSYNQGSD
Method: as §1

[16] = target: T16, IsaA oligopeptide SEQ ID NO: 10 (Staphylococcus aureus)
T16 construct: Synthetic 15-mer of IsaA, spotted on a glass slide
T16 peptide: IMASSLAVALGVTGY
Method: as §1

[17] = target: T17, IsaA oligopeptide SEQ ID NO: 11 (Staphylococcus aureus)
T17 construct: Synthetic 15-mer of IsaA, spotted on a glass slide
T17 peptide: SLAVALGVTGYAAGT
Method: as §1

[18] = target: T18, IsaA oligopeptide SEQ ID NO: 25 (Staphylococcus aureus)
T18 construct: Synthetic 15-mer of IsaA, spotted on a glass slide
T18 peptide: VKDGFQYNFTSNGTT
Method: as §1

[19] = target: T19, IsaA oligopeptide SEQ ID NO: 19 (Staphylococcus aureus)
T19 construct: Synthetic 15-mer of IsaA, spotted on a glass slide
T19 peptide: DLAHNHQDQLNAAPI
Method: as §1

[20] = target: T20, IsaA oligopeptide SEQ ID NO: 59 (Staphylococcus aureus)
T20 construct: Synthetic 15-mer of IsaA, spotted on a glass slide
T20 peptide: QTMPGWGPTNTVDQQ
Method: as §1

[21] = target: T21, IsaA oligopeptide SEQ ID NO: 48 (Staphylococcus aureus)
T21 construct: Synthetic 15-mer of IsaA, spotted on a glass slide
T21 peptide: TGSSAAQIMAQRTGV
Method: as §1

[22] = target: T22, IsaA oligopeptide SEQ ID NO: 24 (Staphylococcus aureus)
T22 construct: Synthetic 15-mer of IsaA, spotted on a glass slide
T22 peptide: DIHFVKDGFQYNFTS
Method: as §1

[23] = target: T23, IsaA oligopeptide SEQ ID NO: 49 (Staphylococcus aureus)
T23 construct: Synthetic 15-mer of IsaA, spotted on a glass slide
T23 peptide: AAQIMAQRTGVSAST
Method: as §1

[24] = target: T24, IsaA oligopeptide SEQ ID NO: 54 (Staphylococcus aureus)
T24 construct: Synthetic 15-mer of IsaA, spotted on a glass slide
T24 peptide: ARESNGQVNAYNPSG
Method: as §1

[25] = target: T25, IsaA oligopeptide SEQ ID NO: 26 (Staphylococcus aureus)
T25 construct: Synthetic 15-mer of IsaA, spotted on a glass slide
T25 peptide: FQYNFTSNGTTWSWS
Method: as §1

[26] = target: T26, IsaA oligopeptide SEQ ID NO: 47 (Staphylococcus aureus)
T26 construct: Synthetic 15-mer of IsaA, spotted on a glass slide
T26 peptide: TAGATGSSAAQIMAQ
Method: as §1

[27] = target: T27, IsaA oligopeptide SEQ ID NO: 37 (Staphylococcus aureus)
T27 construct: Synthetic 15-mer of IsaA, spotted on a glass slide
T27 peptide: QSVSYNAQSSNSNVE
Method: as §1

[28] = target: T28, IsaA oligopeptide SEQ ID NO: 12 (Staphylococcus aureus)
T28 construct: Synthetic 15-mer of IsaA, spotted on a glass slide
T28 peptide: ALGVTGYAAGTGHQA
Method: as §1

[29] = target: T29, IsaA oligopeptide SEQ ID NO: 46 (Staphylococcus aureus)
T29 construct: Synthetic 15-mer of IsaA, spotted on a glass slide
T29 peptide: SNGNTAGATGSSAAQ
Method: as §1

[30] = target: T30, IsaA oligopeptide SEQ ID NO: 23 (Staphylococcus aureus)
T30 construct: Synthetic 15-mer of IsaA, spotted on a glass slide
T30 peptide: DGAYDIHFVKDGFQY
Method: as §1

[31] = target: T31, IsaA oligopeptide SEQ ID NO: 39 (Staphylococcus aureus)
T31 construct: Synthetic 15-mer of IsaA, spotted on a glass slide
T31 peptide: SSNSNVEAVSAPTYH
Method: as §1

[32] = target: T32, IsaA oligopeptide SEQ ID NO: 61 (Staphylococcus aureus)
T32 construct: Synthetic 15-mer of IsaA, spotted on a glass slide
T32 peptide: TNTVDQQINAAVKAY
Method: as §1

[33] = target: T33, IsaA oligopeptide SEQ ID NO: 15 (Staphylococcus aureus)
T33 construct: Synthetic 15-mer of IsaA, spotted on a glass slide
T33 peptide: HQAHAAEVNVDQAHL
Method: as §1

B1: monoclonal antibody MAB-UK-66 secreted by hybridoma cell line DSM ACC2987 (antibody, V domains shown)
VH: DVKLVESGGGLVKLGGSLKLSCSASGFTFSNYYMSWVRQTPEKRLELVADINGNGGSTYYPDTVKGRFTISRDNAKNTLYLQMSSLKSEDTALYYCVRRGGYYALDYWGQGTTVTVSS
VL: DVVMTQTPLSLPVSLGDQASISCRSSQSLVHINGNTYLHWYLQKPGQSPKLLIYRVSNRFSGVPDRFSGSGSGTDFTLKISRVEAEDLGVYFCSQSTHVPWTFGGGTKLELKR
notes: Monoclonal mouse antibody from a hybridoma; Detected with anti-mouse IgG; also called antibodies secreted by cell line DSM ACC2987; anti-IsaA MAB
Binding (fluorescence intensity) [1]: 33300
Binding (fluorescence intensity) [2]: 29500
Binding (fluorescence intensity) [3]: 959
Binding (fluorescence intensity) [4]: 486
Binding (fluorescence intensity) [5]: 192
Binding (fluorescence intensity) [6]: 579
Binding (fluorescence intensity) [7]: 1320
Binding (fluorescence intensity) [8]: 21500
Binding (fluorescence intensity) [9]: 645
Binding (fluorescence intensity) [10]: 1050
Binding (fluorescence intensity) [11]: 1030
Binding (fluorescence intensity) [12]: 371
Binding (fluorescence intensity) [13]: 506
Binding (fluorescence intensity) [14]: 235
Binding (fluorescence intensity) [15]: 55500
Binding (fluorescence intensity) [16]: 228
Binding (fluorescence intensity) [17]: 101
Binding (fluorescence intensity) [18]: 49300
Binding (fluorescence intensity) [19]: 31900
Binding (fluorescence intensity) [20]: 1400
Binding (fluorescence intensity) [21]: 1170
Binding (fluorescence intensity) [22]: 9360
Binding (fluorescence intensity) [23]: 399
Binding (fluorescence intensity) [24]: 570
Binding (fluorescence intensity) [25]: 51800
Binding (fluorescence intensity) [26]: 252
Binding (fluorescence intensity) [27]: 139
Binding (fluorescence intensity) [28]: 680
Binding (fluorescence intensity) [29]: 587
Binding (fluorescence intensity) [30]: 63900
Binding (fluorescence intensity) [31]: 491
Binding (fluorescence intensity) [32]: 479
Binding (fluorescence intensity) [33]: 11700
